Results: patent US20190224282A1

What was measured:
[1] = molecular target: cation-independent mannose-6-phosphate/IGF-II receptor on GM4668 human skin fibroblasts (human) (UniProt P11717); experiment: cell-based or functional assay
[2] = molecular target: cation-independent mannose-6-phosphate/IGF-II receptor on GM4668 human skin fibroblasts (human) (UniProt P11717)
[3] = molecular target: cation-independent mannose-6-phosphate/IGF-II receptor on GM4668 human skin fibroblasts (human) (UniProt P11717); remark: listed apart in the source

Chain of UniProt P11717 (P11717 41-2491): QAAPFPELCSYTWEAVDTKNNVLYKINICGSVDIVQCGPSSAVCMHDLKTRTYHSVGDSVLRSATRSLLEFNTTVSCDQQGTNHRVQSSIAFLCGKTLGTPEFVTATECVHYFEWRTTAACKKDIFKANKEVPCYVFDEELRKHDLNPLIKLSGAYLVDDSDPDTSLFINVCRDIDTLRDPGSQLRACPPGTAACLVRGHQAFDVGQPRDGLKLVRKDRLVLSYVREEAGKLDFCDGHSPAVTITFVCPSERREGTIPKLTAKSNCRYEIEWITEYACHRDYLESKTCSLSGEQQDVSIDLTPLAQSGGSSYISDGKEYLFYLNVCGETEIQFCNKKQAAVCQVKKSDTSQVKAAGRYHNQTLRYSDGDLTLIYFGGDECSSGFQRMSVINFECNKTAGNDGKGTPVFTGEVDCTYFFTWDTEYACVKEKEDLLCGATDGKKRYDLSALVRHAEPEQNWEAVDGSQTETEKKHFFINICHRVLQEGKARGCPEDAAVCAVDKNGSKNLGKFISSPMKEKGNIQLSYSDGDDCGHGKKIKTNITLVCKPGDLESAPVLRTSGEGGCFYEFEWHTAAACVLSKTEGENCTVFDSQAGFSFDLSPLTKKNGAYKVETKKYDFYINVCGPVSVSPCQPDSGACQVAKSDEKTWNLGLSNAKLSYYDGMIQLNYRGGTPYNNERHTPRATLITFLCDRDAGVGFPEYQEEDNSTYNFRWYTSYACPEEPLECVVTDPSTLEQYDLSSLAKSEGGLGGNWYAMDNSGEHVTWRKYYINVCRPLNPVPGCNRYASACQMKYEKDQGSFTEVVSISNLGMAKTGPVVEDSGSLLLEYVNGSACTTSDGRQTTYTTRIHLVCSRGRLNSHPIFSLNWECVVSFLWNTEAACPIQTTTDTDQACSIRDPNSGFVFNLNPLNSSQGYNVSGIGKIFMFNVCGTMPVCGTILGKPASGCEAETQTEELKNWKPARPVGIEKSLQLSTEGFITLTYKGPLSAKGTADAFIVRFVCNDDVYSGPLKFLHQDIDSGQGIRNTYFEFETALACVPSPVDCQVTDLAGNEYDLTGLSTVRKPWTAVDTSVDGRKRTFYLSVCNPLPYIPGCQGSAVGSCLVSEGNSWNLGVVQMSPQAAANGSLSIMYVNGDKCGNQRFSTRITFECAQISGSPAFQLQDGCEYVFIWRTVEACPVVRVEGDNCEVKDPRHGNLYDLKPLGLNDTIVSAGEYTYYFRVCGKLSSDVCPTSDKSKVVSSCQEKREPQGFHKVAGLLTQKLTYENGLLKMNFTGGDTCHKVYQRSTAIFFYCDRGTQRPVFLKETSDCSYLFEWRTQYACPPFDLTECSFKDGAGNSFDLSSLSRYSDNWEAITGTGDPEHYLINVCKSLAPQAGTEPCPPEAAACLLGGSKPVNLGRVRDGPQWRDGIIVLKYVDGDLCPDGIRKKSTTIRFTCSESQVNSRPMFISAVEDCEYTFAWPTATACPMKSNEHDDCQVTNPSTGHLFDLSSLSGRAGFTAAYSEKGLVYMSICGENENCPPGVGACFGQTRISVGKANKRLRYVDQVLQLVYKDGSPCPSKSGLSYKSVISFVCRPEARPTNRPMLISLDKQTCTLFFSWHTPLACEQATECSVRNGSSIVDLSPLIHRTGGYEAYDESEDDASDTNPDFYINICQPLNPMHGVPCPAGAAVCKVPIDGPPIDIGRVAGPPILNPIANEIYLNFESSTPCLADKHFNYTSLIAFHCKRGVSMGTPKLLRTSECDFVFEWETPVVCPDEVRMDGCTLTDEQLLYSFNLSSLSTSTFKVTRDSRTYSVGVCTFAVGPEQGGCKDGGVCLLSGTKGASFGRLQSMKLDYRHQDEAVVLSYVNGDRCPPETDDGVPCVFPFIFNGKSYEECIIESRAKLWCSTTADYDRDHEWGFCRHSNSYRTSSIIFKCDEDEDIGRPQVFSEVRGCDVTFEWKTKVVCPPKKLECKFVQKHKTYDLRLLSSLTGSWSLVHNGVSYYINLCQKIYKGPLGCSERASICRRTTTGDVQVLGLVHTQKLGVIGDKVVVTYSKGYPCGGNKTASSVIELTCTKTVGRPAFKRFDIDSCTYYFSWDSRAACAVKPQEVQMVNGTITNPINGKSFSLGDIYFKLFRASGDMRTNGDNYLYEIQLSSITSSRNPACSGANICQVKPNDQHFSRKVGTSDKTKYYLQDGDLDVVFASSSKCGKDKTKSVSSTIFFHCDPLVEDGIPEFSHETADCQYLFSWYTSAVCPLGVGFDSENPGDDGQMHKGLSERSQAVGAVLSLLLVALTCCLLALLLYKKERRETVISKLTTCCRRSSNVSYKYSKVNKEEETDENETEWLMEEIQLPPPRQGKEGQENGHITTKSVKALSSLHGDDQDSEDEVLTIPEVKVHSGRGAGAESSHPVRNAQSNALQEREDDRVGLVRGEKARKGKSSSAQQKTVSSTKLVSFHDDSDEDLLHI

Substance: CHO GUS (from UniProt P08236 23-651) (enzyme)
- +IGF-II (units/mg): uptake with excess IGF-II, 18 hours [1]: 336 units/mg
- +M6P (units/mg): uptake with excess M6P, 18 hours [1]: 1 units/mg
- Uptake (units/mg), GM4668 fibroblasts, 18 hours [1]: 352 units/mg

Substance: CHO GUS-GILTΔ1-7 (from UniProt P08236 23-651)
- +IGF-II (units/mg): uptake with excess IGF-II, 18 hours [1]: 84 units/mg
- +M6P (units/mg): uptake with excess M6P, 18 hours [1]: 223 units/mg
- Uptake (units/mg), GM4668 fibroblasts, 18 hours [1]: 310 units/mg

Substance: CHO GUSΔC18-GILTΔ1-7 (from UniProt P08236 23-633)
- % IGF-II +M6P inhibition of uptake [1]: 100%
- +IGF-II (units/mg): uptake with IGF-II, 22.5 hours [1]: 473 units/mg
- +IGF-II (units/mg): uptake with excess IGF-II, 18 hours [1]: 258 units/mg
- +IGF-II +M6P (units/mg): uptake with both inhibitors, 22.5 hours [1]: 0 units/mg
- +IGF-II Uptake (units/mg), 21 hours [1]: 1010 units/mg
- +M6P (units/mg): uptake with 8 mM M6P, 22.5 hours [1]: 639 units/mg
- +M6P (units/mg): uptake with excess M6P, 18 hours [1]: 412 units/mg
- Uptake (units/mg), GM4668 fibroblasts, 18 hours [1]: 704 units/mg
- Uptake (units/mg), MPS VII fibroblasts, 21 hours [1]: 4080 units/mg
- Uptake (units/mg), fibroblasts, 22.5 hours [1]: 1580 units/mg

Substance: GILT-GUS with Δ1-7 and Y27L mutations in the IGF-II portion, Leishmania-expressed (from UniProt P08236 23-651)
- cell-associated GUS activity in GM4668 fibroblasts, fold over unmodified GUS [1]: 5 fold

Substance: GUS (enzyme)
- cell-associated GUS activity in GM4668 fibroblast lysate after about 18 h uptake, 150 U enzyme per well (untagged comparison) [2]: 4.5 U/mg lysate
- cell-associated GUS activity in GM4668 fibroblast lysate after uptake of about 350-600 units of ConA-purified enzyme (untagged comparison) (Units/mg protein) [3]: 3.38

Substance: GUS-GILTΔ1-7 (from UniProt P08236)
- cell-associated GUS activity in GM4668 fibroblast lysate after uptake of about 350-600 units of ConA-purified enzyme in the presence of excess IGF-II as competitor (Units/mg protein) [3]: 13.5
- cell-associated GUS activity in GM4668 fibroblast lysate after uptake of about 350-600 units of ConA-purified enzyme, no competitor (Units/mg protein) [3]: 245

Substance: GUS-IGF-II fusion protein (GUS-GILT), Leishmania-expressed
- cell-associated GUS activity in GM4668 fibroblast lysate after about 18 h uptake, 150 U enzyme per well, no competitor [2]: 24.1 U/mg lysate
- cell-associated GILT-GUS in GM4668 fibroblasts, no IGF-II (units/mg lysate) [1]: > 24
- cell-associated GILT-GUS in GM4668 fibroblasts, with excess IGF-II [1]: 5.4 U
- cell-associated GUS activity in GM4668 fibroblasts, fold over unmodified GUS [1]: 10 fold
- cell-associated GUS activity in GM4668 fibroblast lysate after uptake of about 350-600 units of ConA-purified enzyme in the presence of excess IGF-II as competitor (Units/mg protein) [3]: 7.93
- cell-associated GUS activity in GM4668 fibroblast lysate after uptake of about 350-600 units of ConA-purified enzyme, no competitor (Units/mg protein) [3]: 55.1

Substance: HEK GUS-GILT (from UniProt P08236 23-651)
- Uptake (units/mg), MPS VII fibroblasts, 21 hours [1]: 1430 units/mg

Substance: HEK GUS-GILTF19S (from UniProt P08236 23-651)
- % IGF-II +M6P inhibition of uptake [1]: 99.1%
- +IGF-II (units/mg): uptake with IGF-II, 22.5 hours [1]: 217 units/mg
- +IGF-II +M6P (units/mg): uptake with both inhibitors, 22.5 hours [1]: 15 units/mg
- +IGF-II Uptake (units/mg), 21 hours [1]: 439 units/mg
- +M6P (units/mg): uptake with 8 mM M6P, 22.5 hours [1]: 952 units/mg
- Uptake (units/mg), MPS VII fibroblasts, 21 hours [1]: 4730 units/mg
- Uptake (units/mg), fibroblasts, 22.5 hours [1]: 1590 units/mg

Substance: HEK GUS-GILTF19SE12K (from UniProt P08236 23-651)
- % IGF-II +M6P inhibition of uptake [1]: 100%
- +IGF-II (units/mg): uptake with IGF-II, 22.5 hours [1]: 22 units/mg
- +IGF-II +M6P (units/mg): uptake with both inhibitors, 22.5 hours [1]: 0 units/mg
- +IGF-II Uptake (units/mg), 21 hours [1]: 388 units/mg
- +M6P (units/mg): uptake with 8 mM M6P, 22.5 hours [1]: 846 units/mg
- Uptake (units/mg), MPS VII fibroblasts, 21 hours [1]: 4230 units/mg
- Uptake (units/mg), fibroblasts, 22.5 hours [1]: 1230 units/mg

Substance: HEK GUS-GILTY27L (from UniProt P08236 23-651)
- Uptake (units/mg), MPS VII fibroblasts, 21 hours [1]: 1510 units/mg

Substance: HEK GUSΔC18-GILTΔ1-7 (from UniProt P08236 23-633)
- +IGF-II Uptake (units/mg), 21 hours [1]: 1210 units/mg
- Uptake (units/mg), MPS VII fibroblasts, 21 hours [1]: 5190 units/mg
